In the experiment the target is T1, Flag-tagged IRE1α-LD (UniProt O75460 19-440).
T1 construct: signal peptide in the construct; inositol-requiring enzyme 1 (IRE1α/ERN1), luminal domain (LD), residues 1-440; The signal peptide is probably removed in HEK-293T cells; also called IRE1α-LD-FLAG; LD-FLAG; source: HEK-293T, purified (M2 beads, eluted with Flag peptide, concentrated by ultrafiltration)
T1 sequence (looked up): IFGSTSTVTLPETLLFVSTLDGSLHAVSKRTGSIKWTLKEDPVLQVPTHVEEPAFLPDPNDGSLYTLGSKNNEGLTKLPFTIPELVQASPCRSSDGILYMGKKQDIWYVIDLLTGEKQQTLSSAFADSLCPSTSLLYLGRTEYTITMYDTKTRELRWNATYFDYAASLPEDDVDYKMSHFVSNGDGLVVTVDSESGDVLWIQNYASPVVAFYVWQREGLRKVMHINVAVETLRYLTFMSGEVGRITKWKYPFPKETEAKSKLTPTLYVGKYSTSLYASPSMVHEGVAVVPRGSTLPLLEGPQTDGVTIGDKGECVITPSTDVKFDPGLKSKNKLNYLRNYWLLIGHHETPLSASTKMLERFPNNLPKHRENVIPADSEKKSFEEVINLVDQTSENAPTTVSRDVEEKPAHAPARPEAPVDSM
Briefly: pull-down; GST-BiP-NBD immobilized on glutathione Sepharose 4B beads, incubated with IRE1α-LD-FLAG eluate in buffer B (50 mM HEPES, 75 mM NaCl, 10% glycerol, 1 mM TCEP, pH 7.5) with 0.5 or 0.8 mM Ca2+, room temperature, 2 h; anti-FLAG immunoblot. The conditions noted are these: both partners purified. In general terms: Immunoblotting shows a protein as a band on a membrane.

B1: GST-tagged BiP-nucleotide binding domain (NBD) (domain or fragment)
chain: not shown
notes: also called GST-BiP-NBD; BiP-NBD; source: bacterially purified, immobilized on glutathione Sepharose 4B beads
For B1, the binding result is “binds”.

Source of the values: article PMC10318635, “ER Ca^2+ overload activates the IRE1α signaling and promotes cell survival” (Cell & Bioscience, 2023).
